According to publication PMC4158420, “Crenactin from Pyrobaculum calidifontis is closely related to actin in structure and forms steep helical filaments” (Febs Letters, 2014):

Target: the molecule itself
Experiment: crystal structure; vapour diffusion, crenactin around 2-5 mg/ml, 100 mM phosphate/citrate pH 4.2, 200 mM lithium sulfate, 20% PEG 1000; space group P41212; 3.2 Å; ADP bound

B1: Pyrobaculum calidifontis crenactin (natural protein, UniProt A3MWN5 1-432, looked up)
chain: MGVISDAYRLKYTFGVDFGTSYVKYGPITLNEPKMVQTRGLFLRDLPESVKMRIPPDVLARGLVVGDEEVRKYLSSVRDVQRNLKYPLKDGVARRDDEEAWRVLKELARYTLAQFPVSDPEFAGWLVAVALSALAPDYMYKAIFDIYDELASEFKIYAVTILPQPLAVAIAENAVNCVIVEGGHGNIQVAPISFALIREGLVALNRGGAEANAITREILKDIGYSDIAREEYAVEVVKRAVGLVPRRLKEAIRAAKSDPDRFVTKVRLSPVVEVEIPREYAWTRFLIGEIVFDPNHEEIKSYIEQSRLRIENAVIGDVTLYGEMDVASAIITSLRNVSVEIQERVASQIILSGGAFSWRVPPGMEDVAADSVTRVKIALEEKSPALASKVEVRLVSEPQYSVWRGAVIYGYALPLSLEWSDTTREGWRFPRR
notes: crenactin, Pyrobaculum calidifontis, NCBI YP_001056518.1, residues 1-432; full-length protein with no residues added or removed after SUMO cleavage; Gene codon-optimised for E. coli, cloned into pOPINS (HIS6-SUMO-POI); the crystal holds 2 monomers per asymmetric unit, packing as a continuous filament; also called Pc crenactin; source: E. coli BL21(AI), purified (HisTrap, SUMO protease SENP1 …)
binding result: binds
